Results as given in patent publication US20210332142A1 (Genentech, published 2021).

Tests used:
[1] = biological target: T1, recombinant human Tie2 extracellular domain (human, UniProt Q02763 23-748); assay: SPR, IgG captured, 37C
T1 construct: whole entry named; also called Recombinant human Tie2 ECD; hu Tie2
Description: (§1) Antibodies were screened for binding to recombinant human and cyno Tie2 using a Biacore T200 instrument (GE Life Sciences). Briefly, a human antibody capture chip was generated using a Series S CM5 chip, a human antibody capture kit, and an amine coupling kit (GE Life Sciences). Antibodies diluted to 5 μg/ml were captured using a flow rate of 10 μl/minute and a contact time of 20 seconds. Binding of 300 nM and 1500 nM recombinant human and cyno Tie2 extracellular domain to the captured antibodies was analyzed at 37° C. using a single cycle kinetics method with a flow rate of 50 μl/minute, a contact time of 60 seconds and a dissociation time of 120 seconds. Between cycles, the chip was regenerated using 3M MgCl₂ injected for 30 seconds at 30 μl/minute. Data were evaluated using Biacore T200 Evaluation software (GE Life Sciences). Kinetic constants were obtained using a 1:1 binding model with the parameter RI set to zero. Selected antibodies (Table 7A-7B; ch denotes rabbit Abs; TEK denotes rat Abs) were taken forward for secondary activity screening in Fab-NDK format (see Example 8 below).

[2] = biological target: T2, recombinant cyno Tie2 extracellular domain (cynomolgus monkey, UniProt Q02763 23-748 (human entry)); assay: SPR, IgG captured, 37C
T2 construct: also called Recombinant cyno Tie2 ECD; cy Tie2
T2 chain: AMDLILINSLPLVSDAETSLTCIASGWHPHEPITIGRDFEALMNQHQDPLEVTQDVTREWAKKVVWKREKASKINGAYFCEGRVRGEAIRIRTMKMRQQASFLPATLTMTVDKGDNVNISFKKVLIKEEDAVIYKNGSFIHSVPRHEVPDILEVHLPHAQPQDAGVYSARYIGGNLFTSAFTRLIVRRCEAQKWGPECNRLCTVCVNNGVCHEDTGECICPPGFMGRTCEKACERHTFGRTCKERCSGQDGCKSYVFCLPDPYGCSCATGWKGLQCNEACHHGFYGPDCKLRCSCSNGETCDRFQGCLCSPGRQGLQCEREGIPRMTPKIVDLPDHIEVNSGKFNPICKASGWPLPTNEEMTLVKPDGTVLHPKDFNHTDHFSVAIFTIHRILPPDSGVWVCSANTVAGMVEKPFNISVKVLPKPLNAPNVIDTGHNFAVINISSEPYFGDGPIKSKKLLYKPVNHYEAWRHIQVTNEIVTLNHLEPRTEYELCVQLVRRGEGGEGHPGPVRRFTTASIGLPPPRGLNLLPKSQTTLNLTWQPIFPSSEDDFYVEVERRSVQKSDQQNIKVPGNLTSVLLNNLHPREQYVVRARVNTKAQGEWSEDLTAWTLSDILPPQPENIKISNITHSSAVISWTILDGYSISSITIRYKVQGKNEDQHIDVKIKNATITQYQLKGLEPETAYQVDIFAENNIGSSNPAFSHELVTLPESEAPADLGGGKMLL
Description: as §1

[3] = biological target: T1, recombinant human Tie2 extracellular …; assay: SPR, IgG captured, steady state analysis
Description: (§2) Binding to recombinant human and cyno Tie2 was analyzed using a high performance multi-cycle kinetics format with a contact time of 60 seconds, a dissociation time of 60 seconds, a flow rate of 100 μl/minute and Tie2 concentrations of 5 μM, 2.5 μM, 1.25 μM, 625 nM, 313 nM and 156 nM. Tie2 concentrations of 5 μM, 2.5 μM and 1.25 μM were injected twice. Results were analyzed using Biacore T200 Evaluation Software v3.0 (GE Life Sciences). Results from all three surface densities were analyzed together using the 1:1 Binding model with multiple Rmax and the RI parameter set to zero.

[4] = biological target: T2, recombinant cyno Tie2 extracellular …; assay: SPR, IgG captured, steady state analysis
Description: as §2

[5] = biological target: T1, recombinant human Tie2 extracellular …; assay: SPR multi-cycle kinetics, IgG captured, kinetic analysis
Description: Binding to 300 nM and 1500 nM recombinant Tie2 was analyzed at 37° C. using a Single Cycle Kinetics method with a contact time of 60 seconds, a dissociation time of 120 seconds and a flow rate of 50 μl/min. Between cycles, the surface was regenerated by a 30 second injection of 3M MgCl₂ at a flow rate of 30 μl/min. Values for antibody capture levels and analyte binding levels were obtained from the Report Point Table (Biacore Evaluation Software v3.0, GE Life Sciences). […] Table 16: Experiment A; Table 17: Experiment B.
as §2

[6] = biological target: T2, recombinant cyno Tie2 extracellular …; assay: SPR multi-cycle kinetics, IgG captured, kinetic analysis; cyno Tie2; kinetic analysis
Description: as §2

[7] = biological target: T1, recombinant human Tie2 extracellular …; assay: SPR multi-cycle kinetics, IgG captured, kinetic analysis; human Tie2; kinetic analysis
Description: as §2

human Tie2ECD.flag = biological target: T3, human Tie2ECD.flag (human, UniProt Q02763 23-748); assay: Biacore, hIgG captured, 25C
T3 construct: also called hTie2.flag; not shown: C-terminal Flag tag
Description: (§3) Monovalent affinities of selected anti-Tie2 hIgGs were determined using a Biacore T200 instrument (GE Life Sciences). Anti-humanFc was covalently immobilized on a Series S CM5 Biacore sensor chip to enable non-covalent capture of anti-Tie2 antibodies and binding of human or rat Tie2ECD.flag was monitored in real time at 25° C. using a multi-cycle kinetics experiment format. Between cycles, the surface was regenerated with 3 M MgCl₂. Monovalent affinities were determined by kinetic analysis, using Biacore Evaluation Software (GE Life Sciences) to fit a 1:1 binding model to the data.

rat Tie2ECD.flag = biological target: T4, rat Tie2ECD.flag (rat, UniProt A0ABK0L6J5 19-740); assay: Biacore, hIgG captured, 25C
T4 construct: extracellular domain; also called rTie2.flag; not shown: C-terminal Flag tag
Description: as §3

T3 sequence (Q02763 23-748 limits assumed): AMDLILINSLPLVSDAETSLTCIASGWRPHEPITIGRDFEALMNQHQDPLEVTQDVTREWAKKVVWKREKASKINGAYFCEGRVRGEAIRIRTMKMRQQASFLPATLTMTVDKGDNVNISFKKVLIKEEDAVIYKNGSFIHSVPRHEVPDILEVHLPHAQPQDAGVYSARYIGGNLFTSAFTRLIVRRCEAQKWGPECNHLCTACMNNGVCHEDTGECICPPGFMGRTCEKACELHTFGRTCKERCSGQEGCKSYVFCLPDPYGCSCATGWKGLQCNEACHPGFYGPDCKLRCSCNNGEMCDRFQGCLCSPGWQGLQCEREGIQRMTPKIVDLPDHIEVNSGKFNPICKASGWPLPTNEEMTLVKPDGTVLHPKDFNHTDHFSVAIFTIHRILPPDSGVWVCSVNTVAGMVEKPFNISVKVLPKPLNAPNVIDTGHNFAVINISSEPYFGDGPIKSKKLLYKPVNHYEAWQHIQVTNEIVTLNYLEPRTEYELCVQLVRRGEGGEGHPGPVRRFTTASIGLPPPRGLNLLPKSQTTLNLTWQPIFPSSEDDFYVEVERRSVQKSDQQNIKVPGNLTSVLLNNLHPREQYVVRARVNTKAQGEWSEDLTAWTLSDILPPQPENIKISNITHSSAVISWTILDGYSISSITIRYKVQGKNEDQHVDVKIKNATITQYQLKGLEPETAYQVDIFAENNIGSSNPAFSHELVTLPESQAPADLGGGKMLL

B1: Tie2.1 (antibody, human IgG1, V domains shown)
VH: EVQLVESGGGLVQPGGSLRLSCAASGFTFSNTDISWVRQAPGKGLEWVGRISPSDGNTYYADSVKGRFTISADTSKNTAYLQMNSLRAEDTAVYYCARRTRWASWAMDYWGQGTLVTVSS
VL: DIQMTQSPSSLSASVGDRVTITCRASQDVSTAVAWYQQKPGKAPKLLIYSASFLYSGVPSRFSGSGSGTDFTLTISSLQPEDFATYYCQQSYTTPPTFGQGTKVEIKR
notes: human IgG1 in all later assays; also called Ab1; Tie2.1.M100c
B1 was tested, and the Kd [1] was 3 µM, the koff [1] was 0.3 s⁻¹ and the kon [1] was 100000 M⁻¹ s⁻¹. For the same binder, the Kd [2] was 4 µM, the koff [2] was 0.3 s⁻¹ and the kon [2] was 90000 M⁻¹ s⁻¹. The Kd [3] was 3 µM, the Kd [4] was 3 µM and the koff [5] was 0.45 s⁻¹. It also gave a kon [5] of 180000 M⁻¹ s⁻¹, a Kd [6] of 3 µM and a Kd [7] of 3 µM. For the same binder, the Kd (human Tie2ECD.flag) was 1.2 µM and the Kd (rat Tie2ECD.flag) was 1.6 µM.
